Test results published in patent US20070253950A1 (Pfizer, published 2007).

What was measured:
[1] = target: T1, murine RAGE-strep tag fusion protein (murine, UniProt Q62151 23-343); assay: BIACORE capture assay: mRAGE-SA (SA-Mu RAGE) over antibody captured on anti-human Fc; 1:1 Langmuir global fit; average of FC2-FC4
T1 construct: also called mRAGE-strep; mRAGE-SA
T1 chain: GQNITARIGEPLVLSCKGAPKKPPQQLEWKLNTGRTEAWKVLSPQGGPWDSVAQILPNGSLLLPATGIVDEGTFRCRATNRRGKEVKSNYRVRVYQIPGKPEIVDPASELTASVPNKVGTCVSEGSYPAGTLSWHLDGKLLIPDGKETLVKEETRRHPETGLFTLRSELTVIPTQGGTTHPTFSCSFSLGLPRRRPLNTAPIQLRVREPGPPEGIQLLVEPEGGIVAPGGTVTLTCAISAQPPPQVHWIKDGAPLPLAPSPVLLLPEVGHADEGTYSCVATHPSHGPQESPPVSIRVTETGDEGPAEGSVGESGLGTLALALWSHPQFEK
Protocol: (§1) The assays were performed by coating anti-human Fc antibodies onto a CM5 BIA chip with 5000 RU (pH 5.0, 7 min.) in flow cells 1-4. Each antibody was captured by flowing at 2.0 μg/ml over the anti-Fc antibodies in flow cells 2-4 (flow cell 1 was used as a reference).

[2] = target: T2, human RAGE-Fc fusion protein (human, UniProt Q15109 23-344); assay: ligand competition ELISA, panel 'Blocks hRAGE-Fc interaction with A-beta'; blocked ligand amyloid beta 1-42 peptide
T2 construct: amino acids 1-344 of human RAGE appended to the Fc domain of human IgG; also called hRAGE-Fc; huRAGE-Fc

[3] = target: T3, human RAGE-strep tag fusion protein (human, UniProt Q15109 23-344); assay: BIACORE capture assay: hRAGE-SA over antibody captured on anti-human Fc; steady state affinity; FC2
T3 construct: monomeric soluble human RAGE; also called hRAGE-SA; soluble human streptavidin-tagged RAGE
Protocol: as §1

[4] = target: T1, murine RAGE-strep tag fusion protein; assay: BIACORE capture assay: mRAGE-SA (SA-Mu RAGE) over antibody captured on anti-human Fc; 1:1 Langmuir global fit; FC4
Protocol: as §1

[5] = target: T3, human RAGE-strep tag fusion protein; assay: BIACORE, antibody coated on CM5 chip, hRAGE-SA in flow
Protocol: The assays were performed by coating antibodies onto a CM5 BIA chip with 5000-7000 RU.

[6] = target: T1, murine RAGE-strep tag fusion protein; assay: BIACORE capture assay: mRAGE-SA (SA-Mu RAGE) over antibody captured on anti-human Fc; 1:1 Langmuir global fit; FC3
Protocol: as §1

[7] = target: T2, human RAGE-Fc fusion protein; assay: ligand competition ELISA, panel 'Blocks hRAGE-Fc interaction with S100-A'; blocked ligand S100-A
[8] = target: T3, human RAGE-strep tag fusion protein; assay: BIACORE capture assay: hRAGE-SA over antibody captured on anti-human Fc; 1:1 Langmuir global fit; FC4
Protocol: as §1

- Kd [1]: 1.9 nM
- koff [1]: 0.0041 s⁻¹
- kon [1]: 2.1e+06 M⁻¹ s⁻¹
- IC50 (read off the curve) [2]: ~0.1 µg/mL
- Kd [3]: 11 nM
- Kd [4]: 2 nM
- koff [4]: 0.0041 s⁻¹
- kon [4]: 2.1e+06 M⁻¹ s⁻¹
- Ka [5]: 1.77e+08 M⁻¹
- Kd [5]: 5.66 nM
- koff [5]: 0.0248 s⁻¹
- kon [5]: 4.39e+06 M⁻¹ s⁻¹
- Kd [6]: 1.9 nM
- koff [6]: 0.0041 s⁻¹
- kon [6]: 2.1e+06 M⁻¹ s⁻¹
- IC50 (read off the curve) [7]: ~0.08 µg/mL
- Kd [8]: 8.2 nM
- koff [8]: 0.05 s⁻¹
- kon [8]: 6.1e+06 M⁻¹ s⁻¹
B1: chimeric XT-M4 (antibody, V domains shown)
VH: EVQLVESGGGLVQPGRSLKLSCVVSGFTFNNYWMTWIRQTPGKGLEWVASINNSGDNTYYPDSVKDRFTISRDNAKSTLYLQMNSLRSEDTATYYCTRGGDITTGFDYWGQGVMVTVSS
VL: DIQMTQSPSSMSVSLGDTITITCRASQDVGIYVNWFQQKPGKSPRRMIYRATNLADGVPSRFSGSRSGSIYSLTISSLESEDVADYHCLEFDEHPLTFGSGTKVEIK
modifications: N-linked oligosaccharide at Asn52 (CDR2) on part of the heavy chains
notes: rat XT-M4 variable regions fused to human kappa light chain and human IgG1 heavy chain constant regions; L234A and G237A in the human IgG1 Fc region; also called chimeric antibody XT-M4; XT-M4-A-1
